{
  "source": "paper PMC13132546",
  "about": "“The FAM53C/DYRK1A axis regulates the G1/S transition of the cell cycle” (eLife, 2026)",
  "target": "T1, DYRK1A (recombinant, N-terminally biotinylated) (UniProt Q13627 1-763, biotin on the N-terminus (sortase labelling with a synthetic biotin-LPETGG peptide onto the N-terminal glycine left after TEV cleavage))",
  "T1 construct": "DYRK1A; also called Dual-specificity Tyrosine Phosphorylation-regulated Kinase 1 A; biotinylated DYRK1A; not shown: GST, N-terminal, cleaved; biotin-LPETGG peptide (sortase-ligated), N-terminal, kept",
  "assay": "BLI; Octet-RED96e; 200 nM biotinylated DYRK1A loaded on streptavidin biosensor tips, dipped into FAM53C analyte at varied concentrations; 25 mM Tris pH 8.0, 150 mM NaCl, 1 mM DTT, 2 mg/mL BSA, 0.2% Tween; double reference-subtracted; rates from a 1:1 model, KD from steady-state analysis",
  "settings": "both partners purified",
  "data": [
    {"binder": "FAM53C (recombinant) (natural protein, UniProt Q9NYF3 1-392, looked up, FAM53C; also called C5ORF6; source: E. coli BL21 (DE3), purified (Ni-NTA, TEV cleavage, Q Sepharose, Superdex 75)) MITLITEQLQKQTLDELKCTRFSISLPLPDHADISNCGNSFQLVSEGASWRGLPHCSCAEFQDSLNFSYHPSGLSLHLRPPSRGNSPKEQPFSQVLRPEPPDPEKLPVPPAPPSKRHCRSLSVPVDLSRWQPVWRPAPSKLWTPIKHRGSGGGGGPQVPHQSPPKRVSSLRFLQAPSASSQCAPAHRPYSPPFFSLALAQDSSRPCAASPQSGSWESDAESLSPCPPQRRFSLSPSLGPQASRFLPSARSSPASSPELPWRPRGLRNLPRSRSQPCDLDARKTGVKRRHEEDPRRLRPSLDFDKMNQKPYSGGLCLQETAREGSSISPPWFMACSPPPLSASCSPTGGSSQVLSESEEEEEGAVRWGRQALSKRTLCQRDFGDLDLNLIEEN", "values": [
      {"measurement": "Kd", "value": "3.3 ± 0.5", "unit": "mM"}
    ]}
  ]
}
